Measurements as given in US20060172958A1, “Phospholipid scramblase 3” (priority 2003, published 2006).

Experiments:
[1] = target: phospholipid scramblase 3 alpha (PLS3α) (human) (UniProt Q9NRY6); assay: cell-based or functional assay
[2] = target: phospholipid scramblase 3 (PLS3), human, isoform not stated (human) (UniProt Q9NRY6); assay: co-immunoprecipitation with PLS3 antibody, estimated against a PKC-δ blot (not shown)
Chain of phospholipid scramblase 3 (PLS3), human, isoform not stated (human) (Q9NRY6 whole entry, canonical isoform): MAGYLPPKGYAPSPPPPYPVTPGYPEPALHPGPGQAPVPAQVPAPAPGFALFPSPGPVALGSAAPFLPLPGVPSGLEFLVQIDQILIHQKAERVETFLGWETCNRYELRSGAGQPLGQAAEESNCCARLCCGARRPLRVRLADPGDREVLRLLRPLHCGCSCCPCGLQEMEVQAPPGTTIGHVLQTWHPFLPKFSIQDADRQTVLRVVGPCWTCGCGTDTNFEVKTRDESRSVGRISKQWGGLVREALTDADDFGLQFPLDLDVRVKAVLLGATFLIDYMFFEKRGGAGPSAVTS

Chain of phospholipid scramblase 3 alpha (PLS3α) (human) (Q9NRY6 other isoform, or with tags, fused parts or gaps limits assumed): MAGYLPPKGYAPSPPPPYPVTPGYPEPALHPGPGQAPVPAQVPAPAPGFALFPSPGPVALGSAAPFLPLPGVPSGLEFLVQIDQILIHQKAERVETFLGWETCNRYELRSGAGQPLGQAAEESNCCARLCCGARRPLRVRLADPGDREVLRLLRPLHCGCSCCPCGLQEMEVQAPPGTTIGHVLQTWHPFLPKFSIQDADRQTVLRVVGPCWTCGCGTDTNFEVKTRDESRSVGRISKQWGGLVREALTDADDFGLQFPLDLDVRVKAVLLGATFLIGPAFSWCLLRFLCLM

Substance	percentage of cardiolipin at the outer membrane (shoulder of the NAO curve) [1]	proportion of sub-G1 cells, or the apoptotic population (propidium iodide) [1]	percent of total cellular PKC-δ co-immunoprecipitated with PLS3 [2]
Bcl-B (untagged, from pcDNA-Bcl-B or pBcl-B-IRES-EGFP) (from UniProt Q9HD36 1-204)	50%	15.4%	–
PKC-δ (cellular, HEK293 cells) (from UniProt Q05655 1-676) (enzyme)	–	–	5 to 10%
